Here are results for two molecules from US20230333108, “APTAMER-BASED POINT-OF-CARE ASSAY DEVICES AND METHODS” (The Regents of the University of California, published 2023).

Data set [1] has as its target SARS-CoV-2 nucleocapsid (N) protein (SARS-CoV-2, UniProt P0DTC9 P0DTC9:1-419). In words: competition. The settings on record: tags: Sino Biological; label: 5'-biotin.
In data set [2] the target is SARS-CoV-2 spike (S) protein (SARS-CoV-2, UniProt P0DTC2 P0DTC2:14-1213). The data set can be described thus: competition. The settings on record: tags: Sino Biological; label: 5'-biotin.

B1: N-aptamer (anti-N protein aptamer) (ssDNA)
DNA: TTTTTTGCAATGGTACGGTACTTCCGGATGCGGAAACTGGCTAATTGGTGAGGCTGGGGCGGTCGTGCAGCAAAAGTGCACGCTACTTTGCTAA
As for B1, in data set [1], the binding result is given as “binds”.

B2: S-aptamer (anti-S protein aptamer) (ssDNA)
DNA: TTTTTTCAGCACCGACCTTGTGCTTTGGGAGTGCTGGTCCAAGGGCGTTAATGGACA
For the molecule B2, the binding result in data set [2] is recorded as “binds”.
